Laboratory results from paper doi:10.1101/2022.02.14.480375.

Molecular target: S1PR1-SmBiT (S1P receptor-1 fused to the small fragment of split luciferase) (UniProt P21453)
Experiment: split reporter

Chain of UniProt P21453 (P21453 whole entry, the tested form may be a part): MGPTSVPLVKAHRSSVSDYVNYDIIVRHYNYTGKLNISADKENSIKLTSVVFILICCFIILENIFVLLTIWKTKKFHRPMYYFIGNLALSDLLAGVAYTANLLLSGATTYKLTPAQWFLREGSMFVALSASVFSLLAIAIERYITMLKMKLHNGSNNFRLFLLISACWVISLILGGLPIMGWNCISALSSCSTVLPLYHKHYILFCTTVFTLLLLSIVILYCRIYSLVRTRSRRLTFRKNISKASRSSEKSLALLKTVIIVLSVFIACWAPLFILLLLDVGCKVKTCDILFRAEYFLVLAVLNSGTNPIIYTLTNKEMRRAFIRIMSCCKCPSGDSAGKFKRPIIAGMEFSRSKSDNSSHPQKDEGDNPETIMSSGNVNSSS

LgBiT-beta-arrestin fusion protein (from UniProt P49407 1-418) (natural protein)
T1/2 of β-arrestin activation with albumin-bound S1P (1 μM S1P): 16 min
